Results as given in patent US20180155450A1 (Sanofi, published 2018).
Like-named read-outs stand apart in the source and are kept apart here.

Legend:
recombinant human IL13 [1] = biological target: recombinant human IL13 (human, UniProt P35225 35-146, limits assumed); test: cell-based or functional assay
Target sequence in this assay (P35225 35-146 limits assumed): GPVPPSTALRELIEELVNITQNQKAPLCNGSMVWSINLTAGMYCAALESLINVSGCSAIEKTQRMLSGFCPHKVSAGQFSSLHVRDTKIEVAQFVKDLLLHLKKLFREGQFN

recombinant human IL4 [2] = biological target: T1, recombinant human IL4 (human, UniProt P05112 25-153); test: cell-based or functional assay
T1 sequence (looked up): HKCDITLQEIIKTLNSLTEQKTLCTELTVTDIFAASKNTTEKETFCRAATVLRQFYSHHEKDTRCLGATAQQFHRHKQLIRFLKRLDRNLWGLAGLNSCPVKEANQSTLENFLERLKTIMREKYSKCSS

recombinant human IL4 [3] = biological target: T1, recombinant human IL4; test: cell-based or functional assay; remark: listed apart in the source
recombinant human IL4 [4] = biological target: T1, recombinant human IL4; test: SPR (Biacore 3000), antibody captured, antigen as analyte
Experimental: (§1) Kinetic binding analysis by Biacore was performed as follows. Surface plasmon resonance technology on a Biacore 3000 (GE Healthcare) was used for detailed kinetic characterization of purified antibodies. […] Chip surfaces were regenerated with 10 mM glycine pH 2.5. Kinetic parameters were analyzed and calculated in the BIAevaluation program package v4.1 using a flow cell without captured antibody as a reference.

recombinant human IL4 [5] = biological target: T1, recombinant human IL4; test: as above; remark: listed apart in the source
Experimental: as §1

recombinant human IL4 [6] = biological target: T1, recombinant human IL4; test: as above; remark: listed apart in the source
Experimental: as §1

recombinant human IL4 [7] = biological target: T2, recombinant human IL4 (human, UniProt P05112 25-153); test: kinetic table drawn in the figure; assay not named in Example 9, parental rows equal the BIACORE values of Table 6
T2 construct: also called Antigen1
T2 sequence (looked up): T1 sequence (looked up)

recombinant human IL4 [8] = biological target: T2, recombinant human IL4; test: SPR, BIACORE 3000; antibody captured by anti-human Fc, antigen 0-25 nM as analyte
Experimental: (§2) Kinetic characterization of purified antibodies was performed using surface plasmon resonance technology on a BIACORE 3000 (GE Healthcare). […] Chip surfaces were regenerated with 10 mM glycine, pH 2.5. Kinetic parameters were analyzed and calculated in the BIAevaluation program package v4.1 using a flow cell without captured antibody as reference.

recombinant human IL4 [9] = biological target: T1, recombinant human IL4; test: SPR (Biacore 3000), CODV-Fab captured with anti-human Fab capture kit, antigen as analyte
Experimental: as §1

recombinant human IL13 [10] = biological target: T3, recombinant human IL13 (human, UniProt P35225 35-146, limits assumed); test: SPR, BIACORE 3000; antibody captured by anti-human Fc, antigen 0-25 nM as analyte
T3 construct: also called Antigen2
T3 sequence (P35225 35-146 limits assumed): as the sequence (P35225 35-146 limits assumed) above
Experimental: as §2

recombinant human IL13 [11] = biological target: T3, recombinant human IL13; test: SPR, Biacore 3000; CODV-Ig captured by anti-human Fc, antigen as analyte
Experimental: as §1

recombinant human IL4 [12] = biological target: T2, recombinant human IL4; test: as above
Experimental: as §1

B1: CODV-Ig Batch ID 601 (Batch ID 204 with P344C & A432C in IGHG1) (bispecific antibody, human IgG1, kappa)
heavy: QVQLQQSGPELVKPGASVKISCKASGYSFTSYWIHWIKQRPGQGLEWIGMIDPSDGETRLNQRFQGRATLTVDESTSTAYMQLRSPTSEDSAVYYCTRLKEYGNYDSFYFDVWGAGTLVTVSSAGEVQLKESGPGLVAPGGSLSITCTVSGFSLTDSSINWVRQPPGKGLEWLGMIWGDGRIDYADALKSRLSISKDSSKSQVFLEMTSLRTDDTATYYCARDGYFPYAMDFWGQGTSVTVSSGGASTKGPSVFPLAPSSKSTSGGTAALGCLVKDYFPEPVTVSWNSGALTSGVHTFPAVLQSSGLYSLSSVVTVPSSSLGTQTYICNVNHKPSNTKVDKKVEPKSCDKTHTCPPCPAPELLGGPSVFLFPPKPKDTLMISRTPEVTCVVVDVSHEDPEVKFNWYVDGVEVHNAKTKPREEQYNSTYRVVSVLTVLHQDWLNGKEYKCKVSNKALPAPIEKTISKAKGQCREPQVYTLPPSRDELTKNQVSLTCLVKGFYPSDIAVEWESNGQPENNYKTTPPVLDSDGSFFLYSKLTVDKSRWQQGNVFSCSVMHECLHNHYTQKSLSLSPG
light: DIVLTQSPASLAVSLGQRATISCRASESVDSYGQSYMHWYQQKAGQPPKLLIYLASNLESGVPARFSGSGSRTDFTLTIDPVQAEDAATYYCQQNAEDSRTFGGGTKLEIKGGGGGGGDIQMTQSPASLSVSVGDTITLTCHASQNIDVWLSWFQQKPGNIPKLLIYKASNLHTGVPSRFSGSGSGTGFTLTISSLQPEDIATYYCQQAHSYPFTFGGGTKLEIKRGGGGGRTVAAPSVFIFPPSDEQLKSGTASVVCLLNNFYPREAKVQWKVDNALQSGNSQESVTEQDSKDSTYSLSSTLTLSKADYEKHKVYACEVTHQGLSSPVTKSFNRGEC
Recombinant human IL13 [1]
  IC50 Cellular Assay IL13 [nM] (HEK-Blue IL-4/IL-13 reporter cells, SEAP): 1.7 nM
Recombinant human IL4 [2]
  IC50 Cellular Assay IL4 [nM] (HEK-Blue IL-4/IL-13 reporter cells, SEAP): 0.032 nM

B2: CODV-Ig Batch ID 204 (IL4 × IL13 on HC; L1=7, L2=5, L3=1, L4=2) (bispecific antibody)
heavy: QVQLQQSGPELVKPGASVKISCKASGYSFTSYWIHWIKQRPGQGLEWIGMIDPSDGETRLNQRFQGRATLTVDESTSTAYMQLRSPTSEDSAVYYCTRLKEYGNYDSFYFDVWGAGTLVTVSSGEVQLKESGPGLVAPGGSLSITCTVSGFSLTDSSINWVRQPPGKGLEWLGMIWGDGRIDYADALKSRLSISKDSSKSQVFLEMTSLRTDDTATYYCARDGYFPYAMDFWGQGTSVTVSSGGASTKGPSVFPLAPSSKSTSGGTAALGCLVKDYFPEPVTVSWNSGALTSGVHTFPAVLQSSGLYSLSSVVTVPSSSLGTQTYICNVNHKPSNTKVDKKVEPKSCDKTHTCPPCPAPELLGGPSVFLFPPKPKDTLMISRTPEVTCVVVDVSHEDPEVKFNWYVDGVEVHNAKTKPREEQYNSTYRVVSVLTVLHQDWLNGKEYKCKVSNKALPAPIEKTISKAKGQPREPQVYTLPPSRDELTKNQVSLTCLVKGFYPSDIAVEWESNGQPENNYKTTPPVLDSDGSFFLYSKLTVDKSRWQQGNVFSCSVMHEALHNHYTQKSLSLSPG
light: DIVLTQSPASLAVSLGQRATISCRASESVDSYGQSYMHWYQQKAGQPPKLLIYLASNLESGVPARFSGSGSRTDFTLTIDPVQAEDAATYYCQQNAEDSRTFGGGTKLEIKGGGGGGGDIQMTQSPASLSVSVGDTITLTCHASQNIDVWLSWFQQKPGNIPKLLIYKASNLHTGVPSRFSGSGSGTGFTLTISSLQPEDIATYYCQQAHSYPFTFGGGTKLEIKGGGGGRTVAAPSVFIFPPSDEQLKSGTASVVCLLNNFYPREAKVQWKVDNALQSGNSQESVTEQDSKDSTYSLSSTLTLSKADYEKHKVYACEVTHQGLSSPVTKSFNRGEC
notes: 704 prints 'IL13 × IL4' and format 'CODV'; also called 801; 704
Recombinant human IL4 [3]
  IC50 Cellular Assay IL4 [nM] (HEK-Blue IL-4/IL-13 reporter cells, SEAP): 0.045 nM
Recombinant human IL4 [4]
  Kd: 0.003 nM
Recombinant human IL4 [5]
  Kd: 0.003 nM

B3: CODV-Ig Batch ID 602 (Batch ID 204 with S376C & P397C in IGHG1) (bispecific antibody)
heavy: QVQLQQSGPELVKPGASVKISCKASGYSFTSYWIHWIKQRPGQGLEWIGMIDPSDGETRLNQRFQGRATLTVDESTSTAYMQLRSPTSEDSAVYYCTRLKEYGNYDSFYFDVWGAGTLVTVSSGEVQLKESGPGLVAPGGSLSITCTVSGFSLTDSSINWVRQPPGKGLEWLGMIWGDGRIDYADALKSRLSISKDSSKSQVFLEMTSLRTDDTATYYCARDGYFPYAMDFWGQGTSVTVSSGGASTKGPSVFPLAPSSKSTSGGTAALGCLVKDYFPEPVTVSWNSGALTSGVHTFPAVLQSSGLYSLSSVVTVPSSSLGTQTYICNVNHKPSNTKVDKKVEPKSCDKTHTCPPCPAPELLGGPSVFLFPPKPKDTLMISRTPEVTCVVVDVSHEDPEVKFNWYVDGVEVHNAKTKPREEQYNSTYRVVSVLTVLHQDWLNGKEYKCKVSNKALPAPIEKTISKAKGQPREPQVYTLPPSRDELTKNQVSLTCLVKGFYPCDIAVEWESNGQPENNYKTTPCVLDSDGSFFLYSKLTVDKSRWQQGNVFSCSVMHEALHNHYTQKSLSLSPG
light: B2 light
modifications: Engineered cysteine pair in CH3 (intended intradomain disulfide C376-C397, patent's count).
notes: The mutation numbers are those of the column 'Introduced Mutations IGHG1'
Recombinant human IL4 [6]
  Kd: 0.01 nM
Recombinant human IL4 [2]
  IC50 Cellular Assay IL4 [nM] (HEK-Blue IL-4/IL-13 reporter cells, SEAP): 0.034 nM

B4: CODV-Ig Batch ID 603 (Batch ID 204 with P446G447 to G446E447C448 in IGHG1) (bispecific antibody)
heavy: QVQLQQSGPELVKPGASVKISCKASGYSFTSYWIHWIKQRPGQGLEWIGMIDPSDGETRLNQRFQGRATLTVDESTSTAYMQLRSPTSEDSAVYYCTRLKEYGNYDSFYFDVWGAGTLVTVSSGEVQLKESGPGLVAPGGSLSITCTVSGFSLTDSSINWVRQPPGKGLEWLGMIWGDGRIDYADALKSRLSISKDSSKSQVFLEMTSLRTDDTATYYCARDGYFPYAMDFWGQGTSVTVSSGGASTKGPSVFPLAPSSKSTSGGTAALGCLVKDYFPEPVTVSWNSGALTSGVHTFPAVLQSSGLYSLSSVVTVPSSSLGTQTYICNVNHKPSNTKVDKKVEPKSCDKTHTCPPCPAPELLGGPSVFLFPPKPKDTLMISRTPEVTCVVVDVSHEDPEVKFNWYVDGVEVHNAKTKPREEQYNSTYRVVSVLTVLHQDWLNGKEYKCKVSNKALPAPIEKTISKAKGQPREPQVYTLPPSRDELTKNQVSLTCLVKGFYPSDIAVEWESNGQPENNYKTTPPVLDSDGSFFLYSKLTVDKSRWQQGNVFSCSVMHEALHNHYTQKSLSLSGEC
light: B2 light
notes: C-terminal change P446G447 to G446E447C448
Recombinant human IL4 [6]
  Kd: 0.004 nM
Recombinant human IL4 [2]
  IC50 Cellular Assay IL4 [nM] (HEK-Blue IL-4/IL-13 reporter cells, SEAP): 0.036 nM

B5: TBTI/DVD-Ig molecule incorporating anti-IL4 and anti-IL13 sequences (FIG. 7, upper panel) (bispecific antibody)
heavy: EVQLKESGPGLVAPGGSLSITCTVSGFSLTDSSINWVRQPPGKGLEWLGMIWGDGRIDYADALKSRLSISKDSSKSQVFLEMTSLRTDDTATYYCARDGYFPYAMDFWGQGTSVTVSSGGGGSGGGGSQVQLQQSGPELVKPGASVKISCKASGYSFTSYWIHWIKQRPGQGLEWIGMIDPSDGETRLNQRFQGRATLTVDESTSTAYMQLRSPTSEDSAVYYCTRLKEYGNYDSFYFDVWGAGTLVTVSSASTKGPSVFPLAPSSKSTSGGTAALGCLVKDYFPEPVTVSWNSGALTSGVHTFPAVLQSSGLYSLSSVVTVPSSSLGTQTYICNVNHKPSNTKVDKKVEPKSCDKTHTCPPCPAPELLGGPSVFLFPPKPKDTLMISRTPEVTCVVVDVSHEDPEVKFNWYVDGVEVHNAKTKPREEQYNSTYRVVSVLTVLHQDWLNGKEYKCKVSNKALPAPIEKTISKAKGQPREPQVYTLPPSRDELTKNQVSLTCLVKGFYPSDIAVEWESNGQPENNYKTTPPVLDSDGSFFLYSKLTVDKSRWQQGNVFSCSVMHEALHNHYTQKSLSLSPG
light: DIVLTQSPASLAVSLGQRATISCRASESVDSYGQSYMHWYQQKAGQPPKLLIYLASNLESGVPARFSGSGSRTDFTLTIDPVQAEDAATYYCQQNAEDSRTFGGGTKLEIKGGGGSGGGGSDIQMTQSPASLSVSVGDTITLTCHASQNIDVWLSWFQQKPGNIPKLLIYKASNLHTGVPSRFSGSGSGTGFTLTISSLQPEDIATYYCQQAHSYPFTFGGGTKLEIKRTVAAPSVFIFPPSDEQLKSGTASVVCLLNNFYPREAKVQWKVDNALQSGNSQESVTEQDSKDSTYSLSSTLTLSKADYEKHKVYACEVTHQGLSSPVTKSFNRGEC
notes: also called TBTI/DVD-Ig format
Recombinant human IL4 [7]
  Kd: 0.0263 nM
  koff: 0.00015 s⁻¹
  kon: 5.7e+06 M⁻¹ s⁻¹

B6: parental anti-IL4 mAb (antibody, V domains shown)
VH: QVQLQQSGPELVKPGASVKISCKASGYSFTSYWIHWIKQRPGQGLEWIGMIDPSDGETRLNQRFQGRATLTVDESTSTAYMQLRSPTSEDSAVYYCTRLKEYGNYDSFYFDVWGAGTLVTVSS
VL: DIQMTQSPASLSVSVGDTITLTCHASQNIDVWLSWFQQKPGNIPKLLIYKASNLHTGVPSRFSGSGSGTGFTLTISSLQPEDIATYYCQQAHSYPFTFGGGTKLEIKR
notes: also called parental humanized anti-IL4; 8D4
Recombinant human IL4 [8]
  Kd: 0.00783 nM
  koff: 0.000195 s⁻¹
  kon: 2.49e+07 M⁻¹ s⁻¹

B7: CODV-Fab Batch ID 421 (IL4 × IL13; L1=7, L2=5, L3=1, L4=2) (bispecific antibody)
heavy: QVQLQQSGPELVKPGASVKISCKASGYSFTSYWIHWIKQRPGQGLEWIGMIDPSDGETRLNQRFQGRATLTVDESTSTAYMQLRSPTSEDSAVYYCTRLKEYGNYDSFYFDVWGAGTLVTVSSGEVQLKESGPGLVAPGGSLSITCTVSGFSLTDSSINWVRQPPGKGLEWLGMIWGDGRIDYADALKSRLSISKDSSKSQVFLEMTSLRTDDTATYYCARDGYFPYAMDFWGQGTSVTVSSGGASTKGPSVFPLAPSSKSTSGGTAALGCLVKDYFPEPVTVSWNSGALTSGVHTFPAVLQSSGLYSLSSVVTVPSSSLGTQTYICNVNHKPSNTKVDKKVEPKSCDKTHTHHHHHH
light: B2 light
Recombinant human IL4 [9]
  Kd: 0.012 nM

B8: parental anti-IL13 mAb (antibody, V domains shown)
VH: EVQLKESGPGLVAPGGSLSITCTVSGFSLTDSSINWVRQPPGKGLEWLGMIWGDGRIDYADALKSRLSISKDSSKSQVFLEMTSLRTDDTATYYCARDGYFPYAMDFWGQGTSVTVSS
VL: DIVLTQSPASLAVSLGQRATISCRASESVDSYGQSYMHWYQQKAGQPPKLLIYLASNLESGVPARFSGSGSRTDFTLTIDPVQAEDAATYYCQQNAEDSRTFGGGTKLEIK
notes: also called parental humanized anti-IL13; BB13
Recombinant human IL13 [10]
  Kd: 0.0818 nM

B9: CODV-Ig Batch ID 129 (IL4 × IL13 on LC; L1=1, L2=3, L3=2, L4=4) (bispecific antibody)
chain 1: not shown
chain 2: DIQMTQSPASLSVSVGDTITLTCHASQNIDVWLSWFQQKPGNIPKLLIYKASNLHTGVPSRFSGSGSGTGFTLTISSLQPEDIATYYCQQAHSYPFTFGGGTKLEIKGDIVLTQSPASLAVSLGQRATISCRASESVDSYGQSYMHWYQQKAGQPPKLLIYLASNLESGVPARFSGSGSRTDFTLTIDPVQAEDAATYYCQQNAEDSRTFGGGTKLEIKGGGRTVAAPSVFIFPPSDEQLKSGTASVVCLLNNFYPREAKVQWKVDNALQSGNSQESVTEQDSKDSTYSLSSTLTLSKADYEKHKVYACEVTHQGLSSPVTKSFNRGEC
Recombinant human IL13 [11]
  Kd: 0.07 nM
Recombinant human IL4 [12]
  Kd: 0.005 nM

B10: CODV-Ig Batch ID 130 (IL4 × IL13 on LC; L1=1, L2=4, L3=2, L4=4) (bispecific antibody)
chain 1: not shown
chain 2: DIQMTQSPASLSVSVGDTITLTCHASQNIDVWLSWFQQKPGNIPKLLIYKASNLHTGVPSRFSGSGSGTGFTLTISSLQPEDIATYYCQQAHSYPFTFGGGTKLEIKGDIVLTQSPASLAVSLGQRATISCRASESVDSYGQSYMHWYQQKAGQPPKLLIYLASNLESGVPARFSGSGSRTDFTLTIDPVQAEDAATYYCQQNAEDSRTFGGGTKLEIKGGGGRTVAAPSVFIFPPSDEQLKSGTASVVCLLNNFYPREAKVQWKVDNALQSGNSQESVTEQDSKDSTYSLSSTLTLSKADYEKHKVYACEVTHQGLSSPVTKSFNRGEC
Recombinant human IL13 [11]
  Kd: 0.057 nM
Recombinant human IL4 [12]
  Kd: 0.004 nM
